Laboratory results from the RNAGym collection of RNA variant scans (doi:10.7554/elife.80360).

B1: Hammerhead Ribozyme (parent)
chain: ACCGGAUGUGCUUUCCGGUCUGAUGAGUCCGUGAGGACGAAACAG

Variants of: B1
Experiment: self-cleavage, relative activity (ratio to wild type); higher = more cleavage; co-transcriptional

| Variant | self-cleavage |
| --- | --- |
| ACCGGCUGUGCUUUCCGGUCUGCUGAGUCCGUGAGGACGAAACAG | 0.333 |
| ACCGGCUGUGCUUUCCGGUCUGGUGAGUCCGUGAGGACGAAACAG | 0.306 |
| ACCGGCUGUGCUUUCCGGUCUGUUGAGUCCGUGAGGACGAAACAG | 0.271 |
| ACCGGCUGUGCUUUCCGGUCUGAUGCGUCCGUGAGGACGAAACAG | 0.348 |
| ACCGGCUGUGCUUUCCGGUCUGAUGGGUCCGUGAGGACGAAACAG | 0.147 |
| ACCGGCUGUGCUUUCCGGUCUGAUGUGUCCGUGAGGACGAAACAG | 0.337 |
| ACCGGCUGUGCUUUCCGGUCUGAUGAGUCCGUGCGGACGAAACAG | 0.745 |
| ACCGGCUGUGCUUUCCGGUCUGAUGAGUCCGUGGGGACGAAACAG | 0.722 |
| ACCGGCUGUGCUUUCCGGUCUGAUGAGUCCGUGUGGACGAAACAG | 0.529 |
| ACCGGCUGUGCUUUCCGGUCUGAUGAGUCCGUGAGGCCGAAACAG | 0.475 |
| ACCGGCUGUGCUUUCCGGUCUGAUGAGUCCGUGAGGGCGAAACAG | 0.333 |
| ACCGGCUGUGCUUUCCGGUCUGAUGAGUCCGUGAGGUCGAAACAG | 0.449 |
| ACCGGCUGUGCUUUCCGGUCUGAUGAGUCCGUGAGGACGCAACAG | 0.386 |
| ACCGGCUGUGCUUUCCGGUCUGAUGAGUCCGUGAGGACGGAACAG | 0.38 |
| ACCGGCUGUGCUUUCCGGUCUGAUGAGUCCGUGAGGACGUAACAG | 0.37 |
| ACCGGCUGUGCUUUCCGGUCUGAUGAGUCCGUGAGGACGACACAG | 0.274 |
| ACCGGCUGUGCUUUCCGGUCUGAUGAGUCCGUGAGGACGAGACAG | 0.374 |
| ACCGGCUGUGCUUUCCGGUCUGAUGAGUCCGUGAGGACGAUACAG | 0.383 |
| ACCGGCUGUGCUUUCCGGUCUGAUGAGUCCGUGAGGACGAACCAG | 0.35 |

| Variant | self-cleavage |
| --- | --- |
| ACCGGCUGUGCUUUCCGGUCUGAUGAGUCCGUGAGGACGAAGCAG | 0.329 |
| ACCGGCUGUGCUUUCCGGUCUGAUGAGUCCGUGAGGACGAAUCAG | 0.295 |
| ACCGGCUGUGCUUUCCGGUCUGAUGAGUCCGUGAGGACGAAACCG | 0.391 |
| ACCGGCUGUGCUUUCCGGUCUGAUGAGUCCGUGAGGACGAAACGG | 1.06 |
| ACCGGCUGUGCUUUCCGGUCUGAUGAGUCCGUGAGGACGAAACUG | 0.36 |
| ACCGGCUGUGAUUUCCGGUCUGAUGAGUCCGUGAGGACGAAACAG | 0.669 |
| ACCGGCUGUGGUUUCCGGUCUGAUGAGUCCGUGAGGACGAAACAG | 0.958 |
| ACCGGCUGUGUUUUCCGGUCUGAUGAGUCCGUGAGGACGAAACAG | 0.592 |
| ACCGGCUGUGCUUUACGGUCUGAUGAGUCCGUGAGGACGAAACAG | 0.761 |
| ACCGGCUGUGCUUUGCGGUCUGAUGAGUCCGUGAGGACGAAACAG | 0.559 |
| ACCGGCUGUGCUUUUCGGUCUGAUGAGUCCGUGAGGACGAAACAG | 0.659 |
| ACCGGCUGUGCUUUCAGGUCUGAUGAGUCCGUGAGGACGAAACAG | 0.643 |
| ACCGGCUGUGCUUUCGGGUCUGAUGAGUCCGUGAGGACGAAACAG | 0.372 |
| ACCGGCUGUGCUUUCUGGUCUGAUGAGUCCGUGAGGACGAAACAG | 0.689 |
| ACCGGCUGUGCUUUCCGGUAUGAUGAGUCCGUGAGGACGAAACAG | 0.291 |
| ACCGGCUGUGCUUUCCGGUGUGAUGAGUCCGUGAGGACGAAACAG | 0.335 |
| ACCGGCUGUGCUUUCCGGUUUGAUGAGUCCGUGAGGACGAAACAG | 0.371 |
| ACCGGCUGUGCUUUCCGGUCUGAUGAGUACGUGAGGACGAAACAG | 0.44 |
| ACCGGCUGUGCUUUCCGGUCUGAUGAGUGCGUGAGGACGAAACAG | 0.482 |

| Variant | self-cleavage |
| --- | --- |
| ACCGGCUGUGCUUUCCGGUCUGAUGAGUUCGUGAGGACGAAACAG | 0.695 |
| ACCGGCUGUGCUUUCCGGUCUGAUGAGUCAGUGAGGACGAAACAG | 0.588 |
| ACCGGCUGUGCUUUCCGGUCUGAUGAGUCGGUGAGGACGAAACAG | 0.437 |
| ACCGGCUGUGCUUUCCGGUCUGAUGAGUCUGUGAGGACGAAACAG | 0.51 |
| ACCGGCUGUGCUUUCCGGUCUGAUGAGUCCGUGAGGAAGAAACAG | 0.469 |
| ACCGGCUGUGCUUUCCGGUCUGAUGAGUCCGUGAGGAGGAAACAG | 0.427 |
| ACCGGCUGUGCUUUCCGGUCUGAUGAGUCCGUGAGGAUGAAACAG | 0.67 |
| ACCGGCUGUGCUUUCCGGUCUGAUGAGUCCGUGAGGACGAAAAAG | 0.287 |
| ACCGGCUGUGCUUUCCGGUCUGAUGAGUCCGUGAGGACGAAAGAG | 0.294 |
| ACCGGCUGUGCUUUCCGGUCUGAUGAGUCCGUGAGGACGAAAUAG | 0.429 |
| ACCGGCUAUGCUUUCCGGUCUGAUGAGUCCGUGAGGACGAAACAG | 0.783 |
| ACCGGCUCUGCUUUCCGGUCUGAUGAGUCCGUGAGGACGAAACAG | 0.916 |
| ACCGGCUUUGCUUUCCGGUCUGAUGAGUCCGUGAGGACGAAACAG | 0.633 |
| ACCGGCUGUACUUUCCGGUCUGAUGAGUCCGUGAGGACGAAACAG | 0.68 |
| ACCGGCUGUCCUUUCCGGUCUGAUGAGUCCGUGAGGACGAAACAG | 0.515 |
| ACCGGCUGUUCUUUCCGGUCUGAUGAGUCCGUGAGGACGAAACAG | 1.01 |
| ACCGGCUGUGCUUUCCAGUCUGAUGAGUCCGUGAGGACGAAACAG | 0.348 |
| ACCGGCUGUGCUUUCCCGUCUGAUGAGUCCGUGAGGACGAAACAG | 0.269 |
| ACCGGCUGUGCUUUCCUGUCUGAUGAGUCCGUGAGGACGAAACAG | 0.37 |
